This series in a line: yeast display, Sf9 membrane polyspecificity reagent, FACS + sequencing; frameworks hold sequencing errors. A digest of the protocol:
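A nanobody's polyreactivity label depends on the gate it was sorted from. Yeast display cells were stained with 10% biotinylated, detergent-solubilized Sf9 membrane reagent for 1 hour at 4 °C, enriched on streptavidin microbeads and sorted by FACS. The low and high (top ~1%) gates were set on anti-HA fluorescence for expression and streptavidin fluorescence for reagent binding.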
“QVQLVESGGGLVQAGGSLRLSCAASGFTFSRYAMGWYRQAPGKERELVAAISKSTDSTYYADSVKGRFTISRDNAKNTVYLQMNSLKPEDTAVYYCAAVQRYKGLQDDSWGQGTQVTVSS”: the “polyreactivity (PSR sort gate)” value is given as “high polyreactivity”. On to “QVQLVESGGGLVQAGGSLRLSCAASGFTFSRYAMGWYRQAPGKERELVAAISYSGGTTYYADSVKGRFTISRDNAKNTVYLQMNSLKPEDTAVYYCNARARGQLVGHYYYWGQGTQVTVSS”, for which the “polyreactivity (PSR sort gate)” value was “high polyreactivity”. As for “QVQLVESGGGLVQAGGSLRLSCAASGFTFSRYAMGWYRQAPGKERELVAAITLGGGNTYYADSVKGRFTISRDNAKYSVYLQMNSLKREDTSVYYCNAKFGIFGYRSGGYDYWGEGTQVTVSS”, the entry is “high polyreactivity”.

Regarding “QVQLVESGGGLVQAGGSLRLSCAASGFTFSRYTMGWYRQAPGKERELDAAINRRGGSTYYADSVKGRFTISRDNAKNTVYLQMNSLKPEDTAVYYCAATYTVRSGNGIANDYWGQGTQVTVSS”, the “polyreactivity (PSR sort gate)” value was “high polyreactivity”.

Turning to “QVQLVESGGGLVQAGGSLRLSCAASGFTFSRYTMGWYRQAPGKERELVAAITSVGSTYYADSVKGRFTISRDNAKNTVYLQMNSLKPEDTAVYYCARTYSTWYYYWGQGTQVTVSS”, the “polyreactivity (PSR sort gate)” value was “high polyreactivity”.

As to “QVQLVESGGGLVQAGGSLRLSCAASGFTFSSNAMGWYRQAPGKERELVAAISFNSTSTYYADSVKGRFTISRDNAKNTVYLQMNSLKPEDTAVYYCAADVPRVQSEPEYDYWGQGTQVTVSS”, the “polyreactivity (PSR sort gate)” value is “low polyreactivity”.

Consider “QVQLVESGGGLVQAGGSLRLSCAASGFTFSSNAMGWYRQAPGKERELVAAISSSGARTYYADSVKGRFTISRDNAKNTVYLQMNSLKPEDTAVYYCNARGLAGRKGYDYWGHGTQVTVSS”, for which the “polyreactivity (PSR sort gate)” value is on record as “high polyreactivity”. Take “QVQLVESGGGLVQAGGSLRLSCAASGFTFSTNAMGWYRQAPGKETELVAGITSSGGNTYYADSVKGRFTISRDNAKNTVYLQMNSLKPEDTAVYYCAKRRNYVAYDYWGQGTQVTVSS”: the “polyreactivity (PSR sort gate)” value is “high polyreactivity”. As for “QVQLVESGGGLVQAGGSLRLSCAASGFTFSTYAMGWYRQAPGKERELVAGITRRGGSTYYADSVKGRFTISRDNAKNTVYLQMNSLKPEDTAVYYCARDLLRVSSSRYNSWGQGTQVTVSS”, the entry is “high polyreactivity”. On to “QVQLVESGGGLVQAGGSLRLSCAASGFTFSYSAMGWYRPAPGKERELVAAISSGGRTYYADSVKGRFTISRDNAKNTVYLQMNSLKPEDTAVYYCNAEPDQYTLRSITNDEDYWGQGTQVTVSS”, for which the “polyreactivity (PSR sort gate)” value is given as “low polyreactivity”. Under “QVQLVESGGGLVQAGGSLRLSCAASGFTFSYYAMGWYRQAPGKERELVAAISRSGGSPYYADSVKGRFTISRDNAKYTVYLQMNSLKPADTAVYYCATDLSYRHGYWGQGTQVTVSS” stands “high polyreactivity”; under “QVQLVESGGGLVQAGGSLRLSCAASGFTFSYYAMGWYRQAPGKERELVAAITFTGGSTYYADSVKGRFTISRDNAKNTVYLQMNSLKPEDTAVYYCAADWYYGDEYEYWGQGTQVTVSS”, “high polyreactivity”; under “QVQLVESGGGLVQAGGSLRLSCAASGFTFSYYAMGWYRQAPGKERELVASISRSGNTYYADSVKGRFTISRDNAKNTFYLQMNSLKPEDTAVYYCAAKRKSYYSYNFDYWGQGTQVTVSS”, “high polyreactivity”. As for “QVQLVESGGGLVQAGGSLRLSCAASGFTFSYYDMGWYRQAPGTERELVAAISWSGGSTYYADSVKGRFTISRDNAKITVYLQMNSLKPEDTAVYYCNTDTDTTSSGYVYWGQGTQVTVSS”, the entry is “low polyreactivity”. On to “QVQLVESGGGLVQAGGSLRLSCAASGFTFTAYAMGWYRQAPGKERELVAAINWSGSRTYYADSVKGRFTISRDNAKNNVYLKMNSLKPEDTAVYYCNTATSKSSYRHYDYWGQGTQVTVSS”, for which the “polyreactivity (PSR sort gate)” value was “high polyreactivity”. Under “QVQLVESGGGLVQAGGSLRLSCAASGFTFTFNAMGWYRQAPGKERELVAGITSGTSTNYADSVKGRFTISRDNAKNTVYLQMNSLKPEDTAVYYCAADLYLTSGSQGVYVRYDYWGQGTQVTVSS” stands “low polyreactivity”; under “QVQLVESGGGLVQAGGSLRLSCAASGFTFTGNAMGWYRQAPGKERELVAAISRSGGSTFYADSVKGRFTISRDNAKNTVYLQMNSLKPEDTAVYYCAARRRTLNYLYDYWGQGTQVTVSS”, “high polyreactivity”; under “QVQLVESGGGLVQAGGSLRLSCAASGFTFTGYTMGWYRQAPGKQRELVATISGSGGNTYYADSVKGRFTISRDNAKNTVYLQMNSLKPEDTAVYYCARRRSGPRVLYYYWGQGTQVTVSS”, “low polyreactivity”. Turning to “QVQLVESGGGLVQAGGSLRLSCAASGFTFTHYAMGWYRQAPGKERELVAAISTSGGSTYYADSVKGRFTISRDNAKNTVYLQMNSLKPEDTAVYYCAARRDGWVQWGYYYWGQGTQVTVSS”, the “polyreactivity (PSR sort gate)” value was “low polyreactivity”. Under “QVQLVESGGGLVQAGGSLRLSCAASGFTFTIYAMGWYRQAPGKERELVATISGRAGRTYYADSVKGRFTISRDNAKNTVYLQITSRKPEDSAVYYCNAGQWRYPGLYYYWGHGTQVTVSS” stands “high polyreactivity”; under “QVQLVESGGGLVQAGGSLRLSCAASGFTFTIYTMGWYRQAPGKERELVAAISRRGGSTYYADSVKGRFTISRDNAKNTVYLQMNSLNPEDTAVYYCAAYVPQGYKLYYWGQGTQVTGSS”, “high polyreactivity”; under “QVQLVESGGGLVQAGGSLRLSCAASGFTFTKNAMGWYRQAPGKEREMVAAITWRGGSTYYADSVKGRFTISRDNAKNTVYLQMNSLKPEDTAVYYCAADGGSLYDWGQGTQVTVSS”, “low polyreactivity”. Under “QVQLVESGGGLVQAGGSLRLSCAASGFTFTKYAMGWYRQAPVKERELVADITSGTSTYNADSVKGRFTISRDNAKNTVYLQMNSLKPEDTAVYYCAAPLYGRYSYGYWGQGTQVTVSS” stands “high polyreactivity”; under “QVQLVESGGGLVQAGGSLRLSCAASGFTFTPYAMGWYRQAPGKERELVAAISWSDVRTYYADSVKGRFTISRDNAKNTVFLQMNSLKPEDTAVYYCAAEFYFYSWSEYDYWGQGTQVTVSS”, “high polyreactivity”. Regarding “QVQLVESGGGLVQAGGSLRLSCAASGFTFTRNTMGWYRQAPGKERELVADINWDDGSTNYADSVKGRFTISRDNAKNTVYLQMNSLKPEDTAVYYCAADYYFYYLYPSSNLYNYWGQGTQVTVSS”, the “polyreactivity (PSR sort gate)” value was “low polyreactivity”. Under “QVQLVESGGGLVQAGGSLRLSCAASGFTFTRYAMGWYRQAPGKERELVAAISSCGDTYYADSVKGRFTISRDNAKNTVYLQMNSLKPEDTAVYYCAADQSSLDYGNDYWGQGTQVTVSS” stands “low polyreactivity”; under “QVQLVESGGGLVQAGGSLRLSCAASGFTFTRYAMGWYRQAPGKERELVAAISWSGGSTYYADSVKGRFTISRDNAKNTVYLQMNSLKPEDTAVYYCAKRGTVRQGGYGYWGQGTLVTVSS”, “high polyreactivity”; under “QVQLVESGGGLVQAGGSLRLSCAASGFTFTSYAMGWYRQAPGKERELVAAITWDGGRTYYADSVKGRFTISRDNSKNTVYLQMNSLKPEDTAVYYCAKVYNPRQYDYWGQGTQVTVSS”, “low polyreactivity”. As for “QVQLVESGGGLVQAGGSLRLSCAASGFTFTTNAMGWYRQAPGKEREFVAAISRSGGSTDYADSVKGRFTISRDNAKNTVYLQMNSLKPEDTAVYYCNADPRLRQTRDYWGHGTQVTVSS”, the entry is “high polyreactivity”. As for “QVQLVESGGGLVQAGGSLRLSCAASGFTFTTYVMGWYRQAPGKERELVAAISRRGTSTRYADSVKGRFTISRDNAKITVYLQMNSLKTEDTAVYFCAADRPYSIVPYDYWGQGTQVTVSS”, the “polyreactivity (PSR sort gate)” value was “high polyreactivity”.

As to “QVQLVESGGGLVQAGGSLRLSCAASGFTFTVYAMGWYRPAPGKERELVAVITSGDGTYYADSVKGRFTISRDNAKNTVYLQMNSLKPEDTAVYYCNARRYSSFRYRFAYDYWGQGTQVTVSS”, the “polyreactivity (PSR sort gate)” value was “low polyreactivity”.

“QVQLVESGGGLVQAGGSLRLSCAASGFTFTVYAMGWYRQAPGKERELVAVITAGDGTYYADSVKGRFTISRDNAKNTVYLQMNSLKPEDTAVYYCIALRYSSFRYLFAYDYWGQGTQVTVSS”: the “polyreactivity (PSR sort gate)” value is “low polyreactivity”. Under “QVQLVESGGGLVQAGGSLRLSCAASGFTFTWYAMGWYRQAPGKERELVAAISSGGGRTYYADSVKGRFTISRDNAKNTVYLQMNSLKPEDTAVYYCNAVAGGVYVDNGYDYWGQGTQVTVSS” stands “high polyreactivity”; under “QVQLVESGGGLVQAGGSLRLSCAASGFTFTWYAMGWYRQAPGKERELVAAISSGGGRTYYADSVKGRFTISRDNAKNTVYLQMNSLKPEDTAVYYCNKVSSFGYYYWGQGTQVTVSS”, “high polyreactivity”; under “QVQLVESGGGLVQAGGSLRLSCAASGFTFTYYAMGWYRQAPGKERELVAAISWRGTSTFYADSVKGRFTISRDNAKNTVYLQMNSLKPEDTAVYYCATEKWVGYKYWSSRKYDYWGQGTQVTVSS”, “high polyreactivity”.

In the case of “QVQLVESGGGLVQAGGSLRLSCAASGFTFTYYAMGWYRQAPGKERELVATISSGGSTYYADSVKGRFTISRDNAKNTVYLQMNSLKPEDTAVYYCAAERGAITPLVYPPEFDYWGHGTQVTVSS”, the “polyreactivity (PSR sort gate)” value is “low polyreactivity”. Under “QVQLVESGGGLVQAGGSLRLSCAASGFTFVAYAMGWYRQAPGKERELVAAIRRTDTSTYYADSVKGRFTISRDNAKNTVYLQINSLKPEDTAVYYCAADYWRRTYLGFDYWGQGTQVTVSS” stands “low polyreactivity”; under “QVQLVESGGGLVQAGGSLRLSCAASGFTFVEYAMGWYRQATGKERELVAAITSGGSTYYADSVKGRFTISRDNAKNTVYLQMNSLKPADTAVYYCNAEGVVVAISHFSVQDGYWGQGTQVTVSS”, “low polyreactivity”. “QVQLVESGGGLVQAGGSLRLSCAASGFTFVGNAMGSYRQAPGKERELVAAITWSGGRTYYADSVKGRFTISRDNAKNTVYLQMNSLKPEDTAVYYCNKLVERWYGYWGQGTQVTVSS”: the “polyreactivity (PSR sort gate)” value is on record as “high polyreactivity”.

Regarding “QVQLVESGGGLVQAGGSLRLSCAASGFTFVGNAMGWSRQAPGKERELVATITSGGNTKYADSVKGRFTISRDNAKNTVYLQMHSLKPEDTAVYYCAAAKYNYRRFNYWGQGTQVTVSS”, the “polyreactivity (PSR sort gate)” value was “low polyreactivity”. Under “QVQLVESGGGLVQAGGSLRLSCAASGFTFVGNAMGWYRQAAGKEWELVADITGSDGSTYYADSVKGRFTISRDNAKNTVYLQINSLKPEDTAVYYCAASPPYKLVWWRRMDYWGQGTQVTVSS” stands “low polyreactivity”.

For the origin of these results see the nanobody polyreactivity screen of Harvey et al. (2022).
